Data from patent US10314894B2, “Treatment of cardio-renal disease using PCSK6” (THE CLEVELAND CLINIC FOUNDATION, priority 2014, dated 2019).
Positions count from the first letter of the chain named.

Tests used:
corin variant T555I = target: T1, corin variant T555I (Homo sapiens, UniProt Q9Y5Q5, T555I); assay: PCSK6-mediated corin activation in HEK293 cells, corin variant T555I; format: cell-based; conditions: Western
T1 construct: expressed in transfected cells; host or cells: HEK293
T1 sequence (Q9Y5Q5 1-1042 T555I): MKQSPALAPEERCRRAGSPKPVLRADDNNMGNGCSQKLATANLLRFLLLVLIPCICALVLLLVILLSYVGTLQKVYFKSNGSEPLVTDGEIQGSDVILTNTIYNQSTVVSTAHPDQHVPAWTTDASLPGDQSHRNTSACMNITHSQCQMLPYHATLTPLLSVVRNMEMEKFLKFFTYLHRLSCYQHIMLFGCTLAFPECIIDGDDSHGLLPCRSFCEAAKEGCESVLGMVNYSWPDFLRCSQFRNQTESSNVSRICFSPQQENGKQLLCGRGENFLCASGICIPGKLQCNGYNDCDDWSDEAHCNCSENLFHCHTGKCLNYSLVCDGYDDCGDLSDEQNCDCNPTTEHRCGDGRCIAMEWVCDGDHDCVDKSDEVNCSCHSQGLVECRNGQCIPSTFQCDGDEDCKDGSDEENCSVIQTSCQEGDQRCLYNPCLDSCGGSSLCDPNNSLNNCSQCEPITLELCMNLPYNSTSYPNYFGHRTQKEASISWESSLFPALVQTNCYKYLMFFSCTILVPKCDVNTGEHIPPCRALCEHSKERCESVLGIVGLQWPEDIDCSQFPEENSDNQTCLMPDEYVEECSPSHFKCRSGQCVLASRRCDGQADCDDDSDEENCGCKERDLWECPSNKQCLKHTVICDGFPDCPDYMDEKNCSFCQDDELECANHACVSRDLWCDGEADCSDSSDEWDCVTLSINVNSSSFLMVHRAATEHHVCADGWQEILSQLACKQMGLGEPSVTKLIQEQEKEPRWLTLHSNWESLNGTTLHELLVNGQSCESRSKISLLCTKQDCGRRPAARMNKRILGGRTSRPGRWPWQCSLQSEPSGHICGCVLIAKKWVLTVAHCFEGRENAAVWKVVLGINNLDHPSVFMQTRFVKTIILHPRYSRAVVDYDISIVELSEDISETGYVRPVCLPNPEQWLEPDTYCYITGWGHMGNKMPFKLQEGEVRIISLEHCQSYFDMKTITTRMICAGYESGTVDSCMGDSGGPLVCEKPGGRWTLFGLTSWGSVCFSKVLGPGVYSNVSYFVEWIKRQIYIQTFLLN
From the text: (§1) Plasmids expressing human corin WT and mutants R801A, S985A, T555I, Q568P, T555I/Q568P, K317E, S472G and R539C were reported previously. Dong, N. et al., J Biol Chem 289, 17909-17916 (2014); Knappe et al., J Biol Chem 278, 52363-52370 (2003); Wu et al., J Biol Chem 277, 16900-16905. (2002). Plasmids expressing human PCSK1-9 were made by cloning respective cDNAs into pcNDA3.1 vector. Recombinant corin and PCSK proteins encoded by these plasmids contained a C-terminal V5 or flag tag for protein detection in Western blotting.
HEK293 and HL-1 cells were transfected with corin or PCSK6 expression plasmids. After 48-72 h, cells were lysed in a buffer containing 25 mM Tris-HCl, pH 7.4, 150 mM NaCl, 1 mM EDTA, 1% (v/v) NP-40, and 1% (v/v) protease inhibitor cocktail. Recombinant corin and PCSK6 proteins were immunoprecipitated with an anti-V5 or anti-flag antibody. Western blotting was carried out to analyze corin expression and activation or PCSK6 expression with or without reducing agents. Percentage of corin activation (corin-p vs. corin fragments) was quantified by densitometric analysis of Western blots.

recombinant human corin = target: T2, recombinant human corin (Homo sapiens, UniProt Q9Y5Q5); assay: PCSK1-9 plasmids transfected in HEK293 cells expressing recombinant human corin (Western analysis); format: cell-based; conditions: plasmid transfected
T2 construct: expressed in transfected cells; host or cells: HEK293
T2 sequence (Q9Y5Q5 1-1042): T1 sequence (Q9Y5Q5 1-1042 T555I) with I555T
From the text: The PCSK family has 9 members. PCSK1-9 plasmids were transfected in HEK293 cells expressing recombinant human corin. […] By RT-PCR, PCSK6 mRNA was detected in HEK293 and HL-1 cells and in mouse and human hearts where corin is normally expressed. Yan et al., J Biol Chem 274, 14926-14935 (1999). The results were consistent with previous reports of PCSK6 expression in atrial and ventricular cardiomyocytes. Beaubien et al., Cell Tissue Res 279, 539-549 (1995).
as §1
HEK293 and HL-1 cells were transfected with corin or PCSK6 expression plasmids. After 48-72 h, cells were lysed in a buffer containing 25 mM Tris-HCl, pH 7.4, 150 mM NaCl, 1 mM EDTA, 1% (v/v) NP-40, and 1% (v/v) protease inhibitor cocktail. […] Percentage of corin activation (corin-p vs. corin fragments) was quantified by densitometric analysis of Western blots.

PCSK6-mediated activation cleavage (corin variant T555I): detected | corin activation on PCSK overexpression (loss of corin zymogen band) (recombinant human corin): enhanced corin activation
B1: proprotein convertase subtilisin/kexin-6 (protein, listed as Homo sapiens)
chain: MPPRAPPAPGPRPPPRAAAATDTAAGAGGAGGAGGAGGPGFRPLAPRPWRWLLLLALPAACSAPPPRPVYTNHWAVQVLGGPAEADRVAAAHGYLNLGQIGNLEDYYHFYHSKTFKRSTLSSRGPHTFLRMDPQVKWLQQQEVKRRVKRQVRSDPQALYFNDPIWSNMWYLHCGDKNSRCRSEMNVQAAWKRGYTGKNVVVTILDDGIERNHPDLAPNYDSYASYDVNGNDYDPSPRYDASNENKHGTRCAGEVAASANNSYCIVGIAYNAKIGGIRMLDGDVTDVVEAKSLGIRPNYIDIYSASWGPDDDGKTVDGPGRLAKQAFEYGIKKGRQGLGSIFVWASGNGGREGDYCSCDGYTNSIYTISVSSATENGYKPWYLEECASTLATTYSSGAFYERKIVTTDLRQRCTDGHTGTSVSAPMVAGIIALALEANSQLTWRDVQHLLVKTSRPAHLKASDWKVNGAGHKVSHFYGFGLVDAEALVVEAKKWTAVPSQHMCVAASDKRPRSIPLVQVLRTTALTSACAEHSDQRVVYLEHVVVRTSISHPRRGDLQIYLVSPSGTKSQLLAKRLLDLSNEGFTNWEFMTVHCWGEKAEGQWTLEIQDLPSQVRNPEKQGKLKEWSLILYGTAEHPYHTFSAHQSRSRMLELSAPELEPPKAALSPSQVEVPEDEEDYTAQSTPGSANILQTSVCHPECGDKGCDGPNADQCLNCVHFSLGSVKTSRKCVSVCPLGYFGDTAARRCRRCHKGCETCSSRAATQCLSCRRGFYHHQEMNTCVTLCPAGFYADESQKNCLKCHPSCKKCVDEPEKCTVCKEGFSLARGSCIPDCEPGTYFDSELIRCGECHHTCGTCVGPGREECIHCAKNFHFHDWKCVPACGEGFYPEEMPGLPHKVCRRCDENCLSCAGSSRNCSRCKTGFTQLGTSCITNHTCSNADETFCEMVKSNRLCERKLFIQFCCRTCLLAG
modifications: C-terminal FLAG tag
